Experimental findings from patent US20190177408A1 (SUZHOU CONNECT BIOPHARMACEUTICALS, published 2019) are described below.

Like-named read-outs stand apart in the source and are kept apart here.

In assay [1] the target is T1, IL-4Rα on TF-1 cells (human, UniProt P24394 26-825).
T1 sequence (looked up): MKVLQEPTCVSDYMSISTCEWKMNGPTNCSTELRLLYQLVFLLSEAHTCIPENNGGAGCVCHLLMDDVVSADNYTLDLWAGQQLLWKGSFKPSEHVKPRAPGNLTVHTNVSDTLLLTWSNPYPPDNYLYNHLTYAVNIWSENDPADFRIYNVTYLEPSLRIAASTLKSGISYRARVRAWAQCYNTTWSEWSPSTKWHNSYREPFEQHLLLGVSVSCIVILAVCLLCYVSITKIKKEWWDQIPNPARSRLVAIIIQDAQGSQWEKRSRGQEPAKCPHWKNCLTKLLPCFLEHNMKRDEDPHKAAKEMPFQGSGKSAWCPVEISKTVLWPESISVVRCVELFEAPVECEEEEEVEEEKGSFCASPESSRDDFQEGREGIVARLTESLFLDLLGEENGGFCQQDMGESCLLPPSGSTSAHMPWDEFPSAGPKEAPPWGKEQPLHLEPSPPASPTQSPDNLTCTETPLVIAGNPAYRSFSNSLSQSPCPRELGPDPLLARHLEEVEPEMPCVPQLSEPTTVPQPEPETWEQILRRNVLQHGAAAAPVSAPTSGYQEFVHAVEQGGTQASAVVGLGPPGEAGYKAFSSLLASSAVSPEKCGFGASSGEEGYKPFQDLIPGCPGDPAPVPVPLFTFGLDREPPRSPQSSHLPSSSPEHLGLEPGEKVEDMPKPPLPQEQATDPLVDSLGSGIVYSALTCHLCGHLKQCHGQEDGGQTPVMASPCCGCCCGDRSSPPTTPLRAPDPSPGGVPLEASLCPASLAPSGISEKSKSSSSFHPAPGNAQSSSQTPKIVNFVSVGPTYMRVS
The experiment in a line: cell-based or functional assay.

Assay [2] has as its target T1, IL-4Rα on TF-1 cells. The experiment in a line: cell-based or functional assay. This is another data set of the same source.
In assay [3] the target is T2, human soluble IL-4Rα (sIL-4Rα) (human, UniProt P24394 26-232).
T2 construct: Bought reagent (PEPRO TECH, Catalog Number 200-04R); also called shIL-4Rα; soluble hIL-4 Rα
T2 sequence: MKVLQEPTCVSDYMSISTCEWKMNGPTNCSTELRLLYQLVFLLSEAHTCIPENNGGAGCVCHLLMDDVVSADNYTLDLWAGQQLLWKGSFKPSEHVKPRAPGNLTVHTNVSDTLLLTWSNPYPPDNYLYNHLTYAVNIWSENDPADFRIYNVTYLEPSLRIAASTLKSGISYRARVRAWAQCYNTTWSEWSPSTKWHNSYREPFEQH
The experiment in a line: ELISA, coated sIL-4Rα, culture supernatant. How it is done:
100 μl of 100 μg/ml sIL-4Rα solution was added to 9.90 ml of PBS, mixed up and down, and then an antigen coating buffer of 1.0 μg/ml was obtained. The prepared antigen coating buffer was added to a 96-well ELISA plate (Corning) with a volume of 100 μl per well. The 96-well ELISA plate was incubated overnight in a refrigerator at 4° C. On the next day; the solution therein was discarded; and PBS containing 2% BSA was added to the 96-well ELISA plate row by row with a volume of 300 μl per well. The 96-well ELISA plate was incubated for 2 hours in a refrigerator at 4° C., Then the PBS containing 2% BSA was discarded and the plate was washed 3 times with PBST. Diluted antibodies to be tested were sequentially added to the corresponding wells, while the normal cell culture supernatants, as negative control samples, were added too. Three duplicate wells were made for each sample with a volume of 100 μl per well. The ELISA plate was wrapped with preservative film (or covered) and incubated for 1 h at […] in a constant temperature incubator. Subsequently, the 96-well ELISA plate was taken out, and the solution therein was discarded. After washing with PBST for 3 times, TMB solution (Solarbio, Catalog Number: PR1200) was added to the 96-well ELISA plate row by row with a volume of 100 μl per well. The 96-well ELISA plate was placed at room temperature for 5 minutes, and 2 M H2SO4 solution was added in immediately to terminate the reaction. The 96-well ELISA plate was placed in flexstation 3 (Molecular Devices), the values of OD450 were read, and the data were collected, calculated and analyzed. Results were expressed relative to the affinity of control antibody 1.

For assay [4], the target named is T1, IL-4Rα on TF-1 cells. Nature of the assay: cell-based or functional assay. The source holds these as a separate data set.

B1: L1021H1016 (antibody, V domains shown)
VH: EVQLVQSGGGLVHPGGSLRLSCAGSGFTFSRNAMFWVRQAPGKGLEWVSGIGTGGATNYADSVKGRFTISRDNAKNSLYLQMNSLRAEDMAVYYCARGRYYFPWWGQGTLVTVSS
VL: EIVLTQSPGTLSLSPGERATLSCRASQSVSSSYLAWYQQKPGQAPRLLIFGASSRAPGIPDRFSGSGSGTDFTLTISRLEPEDFAVYYCQQYDHSAGWTFGQGTKVEIK
notes: human kappa
Consider B1, for which, in assay [1], the “IC50 (ng/ml) (Inhibition on the proliferation of IL-4)” value is 28.5 ng/mL and the “IC50 (ng/ml) (Inhibition on the proliferation of IL-13)” value is 69.7 ng/mL. In assay [2], the “Inhibitory rate on pro-proliferative effect of IL-4” value (“Inhibitory rate … of IL-4” for short) is 1 and the “Inhibitory rate on pro-proliferative effect of IL-13” value (shortened to “Inhibitory rate … of IL-13”) turned out to be 0.94. For the same molecule, the “OD 450/OD450Control antibody 1” value in assay [3] amounted to 0.63.

B2: L1021H1031 (antibody, V domains shown)
VH: EVQLVESGGGLVQPGGSLRLSCAASGFTFSRNAMFWVRQAPGKGLEWVSGIGTGGATSYADSVKGRFTISRDNAKNSLYLQMNSLRAEDTAVYYCARGRYYFDYWGQGTLVTVSS
VL: EIVLTQSPGTLSLSPGERATLSCRASQSVSSSYLAWYQQKPGQAPRLLIFGASSRAPGIPDRFSGSGSGTDFTLTISRLEPEDFAVYYCQQYDHSAGWTFGQGTKVEIK
notes: human kappa
In the case of B2, in assay [1], the “IC50 (ng/ml) (Inhibition on the proliferation of IL-4)” value was 34.3 ng/mL and the “IC50 (ng/ml) (Inhibition on the proliferation of IL-13)” value came to 76.5 ng/mL. Moreover, in assay [2], the “Inhibitory rate … of IL-4” value amounted to 1.01 and the “Inhibitory rate … of IL-13” value was 0.93. The “OD 450/OD450Control antibody 1” value in assay [3] worked out at 0.9.

B3: L1024H1007 (antibody, V domains shown)
VH: EVQLVQSGGGLVHPGGSLRLSCAGSGFTFSRNAMFWVRQAPGKGLEWVSGIGTGGATSYADSVKGRFTISRDNAKNSLYLQMNSLRAEDMAVYYCARGRYYFDYWGQGTLVTVSS
VL: EIVLTQSPGTLSLSPGERATLSCRASQSVSNSYLAWYQQKPGQAPRLLIFGASSRAPGIPDRFSGSGSGTDFTLTISRLEPEDFAVYYCQQYDHSAGWTFGQGTKVEIK
notes: human kappa
B3: in assay [4], the “Inhibitory rate … of IL-4” value was determined as 0.86 and the “Inhibitory rate … of IL-13” value amounted to 0.7. Besides, the “OD 450/OD450Control antibody 1” value in assay [3] worked out at 0.23.

B4: L1021H1020 (antibody, V domains shown)
VH: EVQLVQSGGGLVHPGGSLRLSCAGSGFTFSRNAMFWVRQAPGKGLEWVSGIGTGGATSYADSVKGRFTISRDNAKNSLYLQMNSLRAEDMAVYYCARGRYYFPWWGQGTLVTVSS
VL: EIVLTQSPGTLSLSPGERATLSCRASQSVSSSYLAWYQQKPGQAPRLLIFGASSRAPGIPDRFSGSGSGTDFTLTISRLEPEDFAVYYCQQYDHSAGWTFGQGTKVEIK
notes: human kappa
In the case of B4, in assay [1], the “IC50 (ng/ml) (Inhibition on the proliferation of IL-4)” value is 15.4 ng/mL and the “IC50 (ng/ml) (Inhibition on the proliferation of IL-13)” value stood at 28.6 ng/mL. Also, in assay [2], the “Inhibitory rate … of IL-4” value came out at 0.91 and the “Inhibitory rate … of IL-13” value came to 0.75. Also, the “OD 450/OD450Control antibody 1” value in assay [3] was 0.24.
